T1: RB (Homo sapiens, UniProt P06400)
T1 construct: coding region of RB cDNA was subcloned into pGEX-6P (Amersham/Pharmacia) for generation of GST-RB; made in house
T1 sequence (P06400 1-928): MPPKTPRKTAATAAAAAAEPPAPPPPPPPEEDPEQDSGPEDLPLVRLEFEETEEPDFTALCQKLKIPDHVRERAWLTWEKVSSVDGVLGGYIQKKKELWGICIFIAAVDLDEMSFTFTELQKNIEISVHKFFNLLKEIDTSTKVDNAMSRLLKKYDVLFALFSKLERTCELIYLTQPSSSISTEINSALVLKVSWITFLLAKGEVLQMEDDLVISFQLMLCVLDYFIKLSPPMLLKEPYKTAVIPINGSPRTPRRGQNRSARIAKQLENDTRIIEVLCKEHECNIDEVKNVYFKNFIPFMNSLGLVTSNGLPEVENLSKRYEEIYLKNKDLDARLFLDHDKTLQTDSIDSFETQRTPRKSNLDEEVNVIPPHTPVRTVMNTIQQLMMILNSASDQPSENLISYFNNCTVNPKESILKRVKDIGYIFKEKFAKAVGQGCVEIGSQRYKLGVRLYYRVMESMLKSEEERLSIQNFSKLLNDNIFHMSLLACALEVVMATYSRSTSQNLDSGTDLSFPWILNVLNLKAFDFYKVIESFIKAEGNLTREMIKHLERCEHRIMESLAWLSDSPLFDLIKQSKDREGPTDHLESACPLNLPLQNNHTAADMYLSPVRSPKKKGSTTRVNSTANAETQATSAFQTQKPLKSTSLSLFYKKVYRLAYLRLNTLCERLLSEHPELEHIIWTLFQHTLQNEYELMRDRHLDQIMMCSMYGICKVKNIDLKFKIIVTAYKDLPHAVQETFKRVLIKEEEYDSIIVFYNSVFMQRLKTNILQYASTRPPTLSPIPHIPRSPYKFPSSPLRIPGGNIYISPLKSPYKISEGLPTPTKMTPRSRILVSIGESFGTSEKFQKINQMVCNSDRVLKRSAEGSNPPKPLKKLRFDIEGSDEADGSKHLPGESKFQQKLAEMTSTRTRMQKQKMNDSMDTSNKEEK


Assays:
[1] = system: NF-κB; experiment: NF-κB luciferase reporter assay in 293T cells; format: cell-based, human; conditions: 1 μg expression construct, 100 ng 5 κB luciferase reporter
Protocol: Cell culture, transfection, and reporter gene assays. The E1A-transformed, human kidney cell line, 293, and NIH-3T3 cells were maintained in Dulbecco's Modified Eagle Medium (DMEM) supplemented with 10% fetal calf serum and penicillin-streptomycin at 37° C. in 5% carbon dioxide in tissue culture grade Petri dishes. PRMT-2−/− mouse embryo fibroblasts (MEFs) and wild type MEFs were prepared from day 13.5 embryos and maintained in DMEM supplemented with 10% fetal calf serum. MEFs at passage 4 were used in this experiment. Lipofectamine Plus™ reagent (Boehringer Mannheim) was used to transfect both 293 and NIH-3T3 cells according to directions from the manufacturer. […] TNF-α stimulation of cells was done using recombinant TNF-α (200 U/ml) for 12 hours. […] CAT assays were performed essentially as described in Leung, K. & Nabel, G. J. Nature 333, 776-778 (1988). To analyze the κB-reporter activity in MEFs, cells were transfected with the reporter (2×kB-Luc) and PRL-TK vector (Promega) using FuGENE6 transfection reagent (Roche). Luciferase activity was analyzed by Dual-Luciferase Reporter Assay System (Promega).
To map the domains responsible for inhibition of HIV transcription, truncation and point mutations were made in PRMT2 (FIG. 1D) and co-transfected with an NF-κB reporter in 293T cells. PRMT2-A represents an alternatively spliced form of PRMT2 found in the expressed sequence tag (EST) database. This isoform contains the first 218 amino acids of PRMT2 and differs from full length PRMT2 by the absence of the less conserved COOH-terminal domain. PRMT2-N was generated by introducing a stop codon after amino acid 95 before the putative Ado-Met domain of PRMT2. To analyze the role of the Ado-Met domain further, another mutant, PRMT2-4A, was prepared in which 141ILDV144 (SEQ ID NO:5) in this region were altered to four consecutive alanines to compare the effects of point mutations in this highly conserved region.
The mechanism and site of action of PRMT2 in the NF-κB signaling pathway was further defined by co-transfection of PRMT2 and its mutants with different regulators in this pathway with an NF-κB reporter in 293T cells (FIG. 2D).

[2] = biological target: T1, RB; experiment: In vitro binding assay with GST-RB; conditions: S35-labeled in vitro translated protein
Protocol: The crude cell lysate of the GST-fusion proteins was prepared and purified according to the manufacture's protocol (Amersham/Pharmacia). [^35S]-methionine-labeled protein was produced by in vitro transcription/translation using the TNT T7-coupled reticulocyte lysate system (Promega). [^35S]-methionine-labeled protein and GST-fusion protein bound to glutathione sepharose 4B beads were incubated in 500 μl of HNE buffer (50 mM Hepes, pH 7.8, 150 mM NaCl, 1 mM EDTA, 1 mM DTT, 1% NP40, and 1× protease inhibitor mix (Complete: Roche)) at 4° C. for 1 hour. Beads were washed four times with HNE buffer, and then analyzed on an SDS-PAGE gradient gel (4-15%). For the detection of endogenous PRMT-2 interaction with RB, MEFs were lysed with WCL buffer (50 mM Hepes, pH 7.8, 400 mM NaCl, 2 mM EDTA, 1 mM DTT, 0.2% NP40, 10% Glycerol, 20 mM α-glycerophosphate, 5 mM NaF, 0.1 mM NaVO4, and 1× protease inhibitor mix). Then, 1 mg of whole cell extracts were incubated with HNE buffer without DTT and 3 μg of antibodies as indicated. The immune complexes were isolated using protein G beads, and washed four times with HNE buffer. The precipitated protein was boiled with SDS-loading buffer and resolved on SDS-PAGE. For immunoprecipitation of HA-tagged protein, transfected cells were lysed with RIPA buffer (phosphate buffer saline containing 1% NP40, 0.5% sodium deoxycholate, 0.1% SDS, and 1× Complete), and 100 μg of whole cell lysates were immunoprecipitated with anti-HA antibodies and washed in RIPA buffer. Western blot analysis was performed as described in Tanner et al. (1998). Circ Res, 82, 396-403.
To test whether PRMT family members interact with RB, S^35-labeled in vitro translated PRMT1, PRMT2, PRMT3, and PRMT4 (CARM1) were incubated with GST-RB fusion proteins or control GST, and co-precipitated labeled proteins were resolved by SDS-PAGE. […] An equal amount of GST-RB and GST were loaded in each lane, verified by Coomassie staining (FIG. 8B).

[3] = system: HIV-1 LTR; experiment: HIV-1 reporter transcription, transient co-transfection; format: cell-based, human; conditions: 293T cells, co-transfection
Protocol: Cell culture, transfection, and reporter gene assays. The E1A-transformed, human kidney cell line, 293, and NIH-3T3 cells were maintained in Dulbecco's Modified Eagle Medium (DMEM) supplemented with 10% fetal calf serum and penicillin-streptomycin at 37° C. in 5% carbon dioxide in tissue culture grade Petri dishes. PRMT-2−/− mouse embryo fibroblasts (MEFs) and wild type MEFs were prepared from day 13.5 embryos and maintained in DMEM supplemented with 10% fetal calf serum. MEFs at passage 4 were used in this experiment. Lipofectamine Plus™ reagent (Boehringer Mannheim) was used to transfect both 293 and NIH-3T3 cells according to directions from the manufacturer. […] TNF-α stimulation of cells was done using recombinant TNF-α (200 U/ml) for 12 hours. Transfected cells were harvested at 36 hours, and CAT activity was assayed on 10 to 100 μg of protein from whole cell extracts. CAT assays were performed essentially as described in Leung, K. & Nabel, G. J. Nature 333, 776-778 (1988). To analyze the κB-reporter activity in MEFs, cells were transfected with the reporter (2×kB-Luc) and PRL-TK vector (Promega) using FuGENE6 transfection reagent (Roche). Luciferase activity was analyzed by Dual-Luciferase Reporter Assay System (Promega).
To determine whether PRMT-1, 2 or 3 could affect NF-κB function, their potential to regulate effects on transcription of the human immunodeficiency virus type 1 (HIV-1) was examined. Transient co-transfections were performed using PRMT1, PRMT2 and PRMT3 expression plasmids with an HIV-1 reporter plasmid in the human renal epithelial cell line, 293T.
To determine its dependence on NF-κB, human immunodeficiency virus type 1 (HIV-1) reporter plasmids with wild-type (WT) or mutant (ΔκB) sites were co-transfected transiently with control or PRMT2 expression plasmids in the different cell lines. […] The KB effect was dose-dependent and was also observed with other inducers of NF-κB, including phorbol […] (PMA) (FIG. 2B, right panel).

| Molecule | NF-κB activity [1] | binding to RB [2] | effect on transcription of the HIV-1 reporter plasmid [3] |
| --- | --- | --- | --- |
| PRMT2-4A: amino acids 141-144 (ILDV) in the Ado-Met domain altered to four consecutive alanines, SEQ ID NO:6 (protein, A synthetic PRMT-2-4A mutant polypeptide) MATSGDCPRSESQGEEPAECSEAGLLQEGVQPEEFVAIADYAATDETQLSFLRGEKILILRQTTADWWWGERAGCCGYIPANHVGKHVDEYDPEDTWQDEEYFGSYGTLKLHLEMLADQPRTTKYHSVILQNKESLTDKVAAAAGCGTGIISLFCAHYARPRAVYAVEASEMAQHTGQLVLQNGFADIITVYQQKVEDVVLPEKVDVLVSEWMGTCLLFEFMIESILYARDAWLKEDGVIWPTMAALHLVPCSADKDYRSKVLFWDNAYEFNLSALKSLAVKEFFSKPKYNHILKPEDCLSEPCTILQLDMRTVQISDLETLRGELRFDIRKAGTLHGFTAWFSVHFQSLQEGQPPQVLSTGPFHPTTHWKQTLFMMDDPVPVHTGDVVTGSVVLQRNPVWRRHMSVALSWAVTSRQDPTSQKVGEKVFPIWR | inhibited NF-κB activity |  |  |
| PRMT2(1-218): deletion mutant lacking the C-terminal domain, retains SH3 domain and a large part of the AdoMet binding domain (protein) MATSGDCPRSESQGEEPAECSEAGLLQEGVQPEEFVAIADYAATDETQLSFLRGEKILILRQTTADWWWGERAGCCGYIPANHVGKHVDEYDPEDTWQDEEYFGSYGTLKLHLEMLADQPRTTKYHSVILQNKESLTDKVILDVGCGTGIISLFCAHYARPRAVYAVEASEMAQHTGQLVLQNGFADIITVYQQKVEDVVLPEKVDVLVSEWMGTCLL |  | bound GST-RB at levels comparable to that of wild type PRMT2 |  |
| PRMT2(1-95): deletion mutant lacking the C-terminal and AdoMet binding domains, retains the SH3 domain (protein) MATSGDCPRSESQGEEPAECSEAGLLQEGVQPEEFVAIADYAATDETQLSFLRGEKILILRQTTADWWWGERAGCCGYIPANHVGKHVDEYDPED |  | did not bind GST-RB |  |
| PRMT3: human protein arginine methyltransferase 3, expression construct (protein) CSLASGATGGRGAVENEEDLPELSDSGDEAAWEDEDDADLPHGKQQTPCLFCNRLFTSAEETFSHCKSEHQFNIDSMVHKHGLEFYGYIKLINFIRLKNPTVEYMNSIYNPVPWEKEEYLKPVLEDDLLLQFDVEDLYEPVSVPFSYPNGLSENTSVVEKLKHMEARALSAEAALARAREDLQKMKQFAQDFVMHTDVRTCSSSTSVIADLQEDEDGVYFSSYGHYGIHEEMLKDKIRTESYRDFIYQNPHIFKDKVVLDVGCGTGILSMFAAKAGAKKVLGVDQSEILYQAMDIIRLNKLEDTITLIKGKIEEVHLPVEKVDVIISEWMGYFLLFESMLDSVLYAKNKYLAKGGSVYPDICTISLVAVSDVNKHADRIAFWDDVYGFKMSCMKKAVIPEAVVEVLDPKTLISEPCGIKHIDCHTTSISDLEFSSDFTLKITRTSMCTAIAGYFDIYFEKNCHNRVVFSTGPQSTKTHWKQTVFLLEKPFSVKAGEALKGKVTVHKNKKDPRSLTVTLTLNNSTQTYGLQ |  | do not bind RB | did not affect transcription |
